Laboratory results reported in patent US20250289903A1 (PURINNOMIA BIOTECH, published 2025).

What was measured:
[1] = target: T1, human CD39 (ectonucleoside triphosphate diphosphohydrolase-1) (human, UniProt P49961 1-510); assay: flow cytometry epitope competition on HCC1739BL cells, competitor PE-Clone A1
T1 construct: whole, on cells; also called hCD39; ENTPD1
T1 sequence (looked up): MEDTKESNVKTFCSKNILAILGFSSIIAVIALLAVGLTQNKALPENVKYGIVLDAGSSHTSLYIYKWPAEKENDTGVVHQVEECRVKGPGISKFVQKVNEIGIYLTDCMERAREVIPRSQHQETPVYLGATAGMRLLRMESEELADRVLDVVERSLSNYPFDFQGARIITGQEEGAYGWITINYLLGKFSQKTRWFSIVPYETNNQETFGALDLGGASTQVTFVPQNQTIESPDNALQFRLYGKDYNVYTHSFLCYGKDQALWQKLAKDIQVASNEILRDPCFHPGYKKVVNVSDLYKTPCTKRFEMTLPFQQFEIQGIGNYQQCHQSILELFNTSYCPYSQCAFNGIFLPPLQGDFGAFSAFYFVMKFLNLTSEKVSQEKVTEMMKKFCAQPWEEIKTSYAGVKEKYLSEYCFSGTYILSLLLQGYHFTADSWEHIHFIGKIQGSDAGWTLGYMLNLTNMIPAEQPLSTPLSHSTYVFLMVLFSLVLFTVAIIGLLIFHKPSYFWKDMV
Method: HCC1739BL cells were incubated with a panel of 18 anti-human CD39 monoclonal antibodies (Human/Rabbit chimeric clones; unconjugated, 2 μg/mL) at 4° C. for 30 minutes, followed by washing and staining with PE-conjugated mouse anti-human CD39 monoclonal antibody (Clone A1) for 30 minutes at 4° C. Cells were then analyzed by flow cytometry and PE median fluorescence intensity (MFI) was detected. Cells incubated with media instead of chimeric antibody were used as control.
Unconjugated anti-human CD39 monoclonal antibodies (Human/Rabbit chimeric clones; 2 μg/mL) were incubated with HCC1739BL cells (1×10⁵ cells) for 30 minutes at 4° C. Cells were then washed twice with cell staining buffer and stained with PE-conjugated mouse anti-human CD39 monoclonal antibody Clone A1 (0.25 μg/mL, Biolegend #328208) for 30 minutes at 4° C. Cells were then washed twice and analyzed by a Cytek™ Aurora flow cytometer. PE median fluorescence intensity (MFI) was detected, and data was analyzed by FCS […] Express 7 software (De Novo Software). Cells incubated with media instead of the chimeric antibody were used as control.

[2] = target: T1, human CD39 (ectonucleoside triphosphate …); assay: cell-based or functional assay
[3] = target: T1, human CD39 (ectonucleoside triphosphate …); assay: stable immune complex assay, HCC1739BL cells, 2 µg/mL, anti-human IgG Fc AF488 MFI, 24 h 37°C vs 20 min 4°C
Method: Exemplary anti-human CD39 antibodies presenting high, low and no ADCC activity (2 μg/mL) were incubated with HCC1739BL cells for 24 hours at 37° C. in 5% CO₂ or 20 minutes at 4° C., followed by secondary antibody staining (anti-human IgG (Fc specific), Alexa Fluor® 488) for 30 minutes at 4° C. Cells were then washed and analyzed by flow cytometry. The difference in AF488 MFI between 20 minutes and 24 hours treatment represents the loss of human CD39 on cell membrane that was calculated as described in Materials and Methods. […] Hu/Ra: Human/Rabbit chimeric antibody; hIgG1: humanized rabbit antibody, IgG1 isotype.
HCC1739BL cells (5×10⁵ cells/mL) were incubated with anti-human CD39 monoclonal antibodies (2 μg/mL) or left untreated for 24 hours at 37° C. in 5% CO₂. The following day, untreated cells were exposed to the same panel of monoclonal antibodies (2 μg/mL) but for 20 minutes at 4° C. to obtain the basal level of CD39 expression. Cells were then washed twice with cell staining buffer and stained with anti-human IgG (Fc specific) Alexa Fluor® 488 (1:2000) for 30 minutes at 4° C., followed by two additional washes and fixation with paraformaldehyde (PFA, 2%) for 10 minutes at room temperature. Lastly, cells were washed twice and analyzed by a Cytek™ Aurora flow cytometer (Cytek Biosciences). Alexa Fluor® 488 (AF488) MFI was detected, and data was analyzed by FCS Express 7 software (De Novo Software). The percentage of human CD39 loss on cell membrane at 24 hours was calculated as: [(20 min MFI-24 h MFI/20 min MFI)]X100.

Binder | binding result [1] | loss of human CD39 (immune complex) on cell membrane at 24 hours [3] | also measured
PEO23, Human/Rabbit chimeric anti-human CD39 monoclonal antibody (antibody, V domains shown, also called clone PEO23) VH: QSVEESGGRLVTPGTPLTLTCTASGFSLSTHAINWVRQAPGKGLEWIGITYASGRTYYASWAKGRFTISKTSTTVDLKITSPTTEDTATYFCARNGADETFYYFDLWGPGTLVTVSS VL: AYDMTQTPASVEAAVGGTVTIKCQASQNINTWLSWYQQKAGQPPKLLIYRASTLASGVSSRFKGSGSGTQFTLTISGVECADAATYYCQQYDASINIDNAFGGGTEVVVK | binds | – | –
PEO22, optimized afucosylated counterpart of PEOWT22 (antibody, human IgG1, kappa, V domains shown, afucosylated (Fc glycan); no genetic modifications) VH: EVQLVESGGGVVRPGGSLRLSCAASGFTFSSYAMHWVRQAPGKGLEWVAVISYDVSNKYYADSVKGRFTISRDNSKNTLYLQMNSLRAEDTAVYYCARSYYYYYGMDVWGQGTTVTVSS VL: DVVMTQSPSSLSASVGDRVTITCRASQSISRYLAWYQQKPGQAPRLLIYDASNRATGIPVRFSGSGSGTDFTLTISRLEPEDFAVYYCQQFGRSPRTFGQGTRLEIKR | – | – | EC50 of NK cytotoxicity toward human eosinophils (in-vitro ADCC assay, human NK effector cells) [2]: 0.294 ng/mL
PEOWT22, fully human anti-CD39 monoclonal antibody (parent, fully fucosylated) (antibody, human IgG1, kappa, V domains shown) VH: EVQLVESGGGVVRPGGSLRLSCAASGFTFSSYAMHWVRQAPGKGLEWVAVISYDVSNKYYADSVKGRFTISRDNSKNTLYLQMNSLRAEDTAVYYCARSYYYYYGMDVWGQGTTVTVSS VL: DVVMTQSPSSLSASVGDRVTITCRASQSISRYLAWYQQKPGQAPRLLIYDASNRATGIPVRFSGSGSGTDFTLTISRLEPEDFAVYYCQQFGRSPRTFGQGTRLEIKR | – | – | EC50 of NK cytotoxicity toward human eosinophils (in-vitro ADCC assay, human NK effector cells) [2]: 3.03 ng/mL
PEONP22, afucosylated counterpart of PEOWT22 (antibody, human IgG1, kappa, V domains shown, afucosylated (Fc glycan); no genetic modifications, Produced by CHO cells stably transfected with the parental PEOWT22 plasmid) VH: EVQLVESGGGVVRPGGSLRLSCAASGFTFSSYAMHWVRQAPGKGLEWVAVISYDVSNKYYADSVKGRFTISRDNSKNTLYLQMNSLRAEDTAVYYCARSYYYYYGMDVWGQGTTVTVSS VL: DVVMTQSPSSLSASVGDRVTITCRASQSISRYLAWYQQKPGQAPRLLIYDASNRATGIPVRFSGSGSGTDFTLTISRLEPEDFAVYYCQQFGRSPRTFGQGTRLEIKR | – | < 30% | –
PEO24, Human/Rabbit chimeric anti-human CD39 monoclonal antibody (antibody, V domains shown, also called clone PEO24) VH: QSVEESGGRLVTPGTPLTLTCTVSGIDLSSNAMSWVRQAPGKGLEYIGIIRNNDITYYASWAKGRFTISKTSTTVDLIITSPTTEDTATYFCARGGGSYSIVFWNLWGPGTLVTVSS VL: AYDMTQTPASVEVAVGGTVTINCQASERIYSNLAWYQQKPGQRPKLLIYYASTLASGVSSRFKGSGSGTQFTLTISGVQCADAATYYCQQGYSNNNVDNTFGGGTEVVVR | binds | – | –
PEO21, Human/Rabbit chimeric anti-human CD39 monoclonal antibody (antibody, V domains shown, also called clone PEO21) VH: QSVEESGGRLVTPGTPLTLTCTVSGFSLSSYAMSWVRQAPGKGLEYIGIISSSGSTYYASWAKGRFTISKTSTTVDLKISSPTTEDTATYFCARDRVIYSIGPYYFNLWGPGTLVTVSS VL: AYDMTQTPSSVSATVGGTVTINCQASEIIYSNLAWYQQKPGQPPKLLIYGASTLASGVPSRFKGSGSGTEYTLTISDLQCDDAATYYCQQSFSSNNVGNIFGGGTEVVVK | – | < 30% | –

Now from value to binder, other results behind:

binding result [1] | loss of human CD39 (immune complex) on cell membrane at 24 hours [3] | Binder | also measured
– | < 30% | PEO20, Human/Rabbit chimeric anti-human CD39 monoclonal antibody (antibody, V domains shown, also called clone PEO20) VH: QSVEESGGRLVTPGTPLTLTCTVSGFSLSSYAISWVRQAPGKGLEYIAIINSYGTTYYASWAKGRVTISKTSSTVDLKISSPTTEDTATYFCARGDSYGSGVGLGLWGPGTLVTVSS VL: AYDMTQTPASVEVAVGGTVTIKCQASQNIYSNLAWYQQKPGQRPKLLIYRASSLASGVPSRFSGSGSGTEFTLTISGVQCDDAATYYCQQGFSSNNVDNTFGGGTEVVVK | –
binds | – | PEO18, Human/Rabbit chimeric anti-human CD39 monoclonal antibody (antibody, V domains shown, also called clone PEO18) VH: QSVKEAGGRLVTPGGSLTLTCTVSGFSLSAYGISWVRQAPGKGLEWIGIIYSSGRTYYANWAKGRFTISKTSSTTVDLKMTSLTTEDTAAYFCARSRAGISSGDGFDSWGPGTLVTVSS VL: ALVMTQTPSSVSAAVGGTVTINCQASQNIYSNLAWYQQKPGQRPQLLIYRASTLASGVPSRFKGSASGTEYTLTISGVQCDDAATYYCQQGFDSSNIDNTFGGGTEVVVT | –
– | < 30% | PEO19, Human/Rabbit chimeric anti-human CD39 monoclonal antibody (antibody, V domains shown, also called clone PEO19) VH: QSVEESGGRLVTPGTHLTLTCTVSGFSLSKSIISWVRQAPGKGLEYIGIIGSSGSTYYANWAKGRFTISKTSSTTVDLRMTSLTPEDTATYFCARGLLYSGNKSWGPGTLVTVSS VL: AIDMTQTPSSVSAAVGGTVTINCQSSQSVLLNNQLSWFQQKPGQPPKLLIYDASTLESGVPSRFTGSGSGTQFTLTISDLECDDAATYYCLGGYSGNLYAFGGGTEVLVK | –
